According to patent US11732029B2, “Methods and compositions for the treatment of wounds” (The University of Chicago, priority 2017, dated 2023):
“Also recorded” adds a separate entry of the source.

How the values were obtained:
[1] = tested on: human lung fibroblasts; experiment: Cell adhesion assay on vWF HBD coated plates; format: cell-based; details: 1 μg/mL vWF HBD coated plates
Experimental: Cell adhesion assays were performed using starved human lung fibroblasts (Lonza) in FGM-2 medium (Lonza) with or without 5 mM EDTA. Cells were plated at 3000 cells/well on 1 μg/mL vWF HBD pre-coated 96-well plates (non-tissue culture treated, Greiner Bio-one) and incubated for 30 min at 37° C. Then, the medium was removed, and wells were further washed three times with new FGM-2 medium. Cell numbers were quantified using a CyQUANT assay (Invitrogen).

[2] = molecular target: T1, VEGF-A145 (Homo sapiens, UniProt P15692); experiment: vWF binding to recombinant VEGF-A isoforms (ELISA); details: plate coated with 50 nM vWF domains, 1 μg/mL VEGF-A, vs BSA
T1 construct: All GFs and chemokines were purchased in their mature forms; purchased R & D Systems
T1 sequence (P15692 27-171 isoform P15692-6 limits assumed): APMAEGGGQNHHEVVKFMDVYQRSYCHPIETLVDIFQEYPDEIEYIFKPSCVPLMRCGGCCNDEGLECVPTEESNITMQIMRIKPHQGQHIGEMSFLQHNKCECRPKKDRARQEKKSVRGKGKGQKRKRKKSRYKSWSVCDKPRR
Experimental: (§1) ELISA was performed as previously reported1. In brief, ELISA plates (med binding: Greiner Bio-One) were coated with 50 nM BSA (GE Healthcare), pro-peptide containing recombinant vWF (Sino Biological), plasma-derived vWF (EMD Millipore), recombinant human vWF A1 domain (U-Protein Express), recombinant human vWF A2 domain (R & D systems), recombinant human vWF A3 domain (U-Protein Express), vWF A1 HBD peptide or scrambled/mutated HBD peptide (all peptides were synthesized by Genscript). After blocking with 2% BSA solution containing PBS-T, 1 μg/mL of recombinant human VEGF-A121 (PeproTech), recombinant human VEGF-A145 (R & D Systems), or recombinant human VEGF-A165 (PeproTech) was added. Bound VEGF-A was detected with 1 μg/mL of mouse anti-human VEGF-A antibody (clone: 26503, R & D systems). After 60 min of incubation, horseradish peroxidase (HRP) conjugated goat anti-mouse antibody (1:2000 dilution, Dako) was added and incubated for another 60 min. Color development and the absorbance measurement were done as described above.

[3] = molecular target: T2, VEGF-A165 (Homo sapiens, UniProt P15692); experiment: vWF binding to recombinant VEGF-A isoforms (ELISA); details: plate coated with 50 nM vWF domains, 1 μg/mL VEGF-A, vs BSA
T2 construct: All growth factors (GFs) and chemokines were purchased in their mature forms; purchased PeproTech; host or cells: Escherichia coli
T2 sequence (P15692 27-191 isoform P15692-4 limits assumed): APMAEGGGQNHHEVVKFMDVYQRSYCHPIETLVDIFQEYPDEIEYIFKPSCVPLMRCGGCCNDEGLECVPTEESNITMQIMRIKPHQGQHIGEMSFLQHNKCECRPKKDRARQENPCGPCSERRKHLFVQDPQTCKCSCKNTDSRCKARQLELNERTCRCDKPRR
Experimental: as §1

[4] = molecular target: T2, VEGF-A165; experiment: Surface plasmon resonance, vWF against GF; format: binding; details: SPR; vWF immobilized; 1:1 Langmuir fit, single KD; read-out: dissociation constant (KD value) for VEGF-A165
Experimental: (§2) SPR assays were performed as described previously2. In brief, measurements were made with a Biacore X100 SPR system or Biacore 3000 SPR system (GE Healthcare). Plasma-derived vWF was immobilized via amine coupling on a C1 chip (GE Healthcare) for 2000 resonance units (RU) according to the manufacturer's instructions. Recombinant human VEGF-A165, VEGF-A121, or PDGF-BB was flowed at increasing concentrations in the running buffer at 30 μL/min. The sensor chip was regenerated with glycine at pH 2 for every cycle. Specific binding of GFs to vWF was calculated automatically using the response to a non-functionalized channel as a reference. Binding curves were fitted using BIAevalution software (GE Healthcare). vWF-VEGF-A165 binding results were fitted with Langmuir binding kinetics (1:1 binding with drifting baseline Rmax local). vWF-PDGF-BB binding results were fitted with heterogeneous ligand-parallel reaction.

[5] = tested on: VEGF-A; experiment: vWF binding to VEGF-A in human serum (sandwich ELISA, immunoprecipitation and Western blotting); details: two lots of pooled serum from healthy donors
Experimental: One mL of human serum was immunoprecipitated with 10 μg of monoclonal rabbit anti-human vWF antibody (SinoBiological) or control rabbit IgG (EMD Millipore) and 50 μL of protein G-agarose (Thermo Fisher Scientific) overnight at 4° C. The resulting pellet was dissolved in Laemmli buffer and subjected to Western blot analysis. Western blot analysis was performed after SDS-PAGE (4-20% gradient gel, Bio-Rad) and transfer onto MS nitrocellulose membranes (Membrane Solutions). GFs were detected using 1 μg/mL biotinylated antibodies for human VEGF-A (R & D Systems), followed by incubation with HRP conjugated streptavidin (R & D Systems) at 1:200 dilutions. The proteins were detected and visualized with the ECL Plus Western Blotting Detection System (GE Healthcare).
The study was approved by the ethics committees of the Hammersmith, Queen Charlotte's, and Royal Marsden hospitals; informed consent was obtained from all individuals in accordance with the Declaration of Helsinki. ELISA plates (med-binding) were coated with 10 μg/mL rabbit monoclonal anti-human vWF antibody (clone: 111, SinoBiological). […] The antibodies were detected by streptavidin-HRP (R & D Systems). Color development and the absorbance measurement were done as described above.

[6] = molecular target: T3, VEGF-A121 (Homo sapiens, UniProt P15692); experiment: Surface plasmon resonance, vWF against GF; format: binding; set-up: All growth factors (GFs) and chemokines were purchased in their mature forms; purchased PeproTech; host or cells: Escherichia coli; details: vWF immobilized, VEGF-A121 50-800 nM
T3 sequence (P15692 27-147 isoform P15692-9 limits assumed): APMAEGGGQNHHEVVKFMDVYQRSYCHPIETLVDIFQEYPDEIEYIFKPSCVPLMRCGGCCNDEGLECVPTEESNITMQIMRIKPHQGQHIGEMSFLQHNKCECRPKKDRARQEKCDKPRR
Experimental: as §2

Substance | fibroblast attachment with EDTA ([1]; 5 mM EDTA) | fibroblast attachment ([1]; 30 min, without EDTA) | binding to VEGF-A145 [2] | binding to VEGF-A165 [3] | Kd [4] | vWF binding to VEGF-A in pooled human serum [5] | binding to VEGF-A121 by SPR [6]
YIGLKDRKRPSELRRIASQVKYAC [vWF HBD] | inhibited | significantly enhanced fibroblast attachment | able to bind | able to bind | – | – | –
vWF: human plasma-derived von Willebrand factor (EMD Millipore) | – | – | bound | bind | 27 nM | binds to VEGF-A | did not show significant binding; also recorded: No binding was observed
